# Assay results published in IntAct's records for PubMed 17721439.
# Columns and labels:
# [1] = target: wnk4_human WNK4 (UniProt Q96J92)
# [2] = target: wnk4_human WNK4 (UniProt Q96J92); remark: listed apart in the source
# [3] = target: wnk4_human WNK4 (UniProt Q96J92); remark: listed apart in the source
# [4] = target: wnk4_human WNK4 (UniProt Q96J92); remark: listed apart in the source
# [5] = target: wnk4_human WNK4 (UniProt Q96J92); remark: listed apart in the source
# [6] = target: wnk4_human WNK4 (UniProt Q96J92); remark: listed apart in the source
# [7] = target: wnk4_human WNK4 (UniProt Q96J92); remark: listed apart in the source
# [8] = target: wnk1_human WNK1 (UniProt Q9H4A3)
# [9] = target: SLC12A2 (UniProt P55011)
# [10] = target: wnk4_human WNK4 (UniProt Q96J92); remark: listed apart in the source
# [11] = target: wnk4_human WNK4 (UniProt Q96J92); remark: listed apart in the source
# [12] = target: wnk1_human WNK1 (UniProt Q9H4A3); remark: listed apart in the source
# [13] = target: SLC12A2 (UniProt P55011); remark: listed apart in the source
# Chain of wnk4_human WNK4 (Q96J92 whole entry): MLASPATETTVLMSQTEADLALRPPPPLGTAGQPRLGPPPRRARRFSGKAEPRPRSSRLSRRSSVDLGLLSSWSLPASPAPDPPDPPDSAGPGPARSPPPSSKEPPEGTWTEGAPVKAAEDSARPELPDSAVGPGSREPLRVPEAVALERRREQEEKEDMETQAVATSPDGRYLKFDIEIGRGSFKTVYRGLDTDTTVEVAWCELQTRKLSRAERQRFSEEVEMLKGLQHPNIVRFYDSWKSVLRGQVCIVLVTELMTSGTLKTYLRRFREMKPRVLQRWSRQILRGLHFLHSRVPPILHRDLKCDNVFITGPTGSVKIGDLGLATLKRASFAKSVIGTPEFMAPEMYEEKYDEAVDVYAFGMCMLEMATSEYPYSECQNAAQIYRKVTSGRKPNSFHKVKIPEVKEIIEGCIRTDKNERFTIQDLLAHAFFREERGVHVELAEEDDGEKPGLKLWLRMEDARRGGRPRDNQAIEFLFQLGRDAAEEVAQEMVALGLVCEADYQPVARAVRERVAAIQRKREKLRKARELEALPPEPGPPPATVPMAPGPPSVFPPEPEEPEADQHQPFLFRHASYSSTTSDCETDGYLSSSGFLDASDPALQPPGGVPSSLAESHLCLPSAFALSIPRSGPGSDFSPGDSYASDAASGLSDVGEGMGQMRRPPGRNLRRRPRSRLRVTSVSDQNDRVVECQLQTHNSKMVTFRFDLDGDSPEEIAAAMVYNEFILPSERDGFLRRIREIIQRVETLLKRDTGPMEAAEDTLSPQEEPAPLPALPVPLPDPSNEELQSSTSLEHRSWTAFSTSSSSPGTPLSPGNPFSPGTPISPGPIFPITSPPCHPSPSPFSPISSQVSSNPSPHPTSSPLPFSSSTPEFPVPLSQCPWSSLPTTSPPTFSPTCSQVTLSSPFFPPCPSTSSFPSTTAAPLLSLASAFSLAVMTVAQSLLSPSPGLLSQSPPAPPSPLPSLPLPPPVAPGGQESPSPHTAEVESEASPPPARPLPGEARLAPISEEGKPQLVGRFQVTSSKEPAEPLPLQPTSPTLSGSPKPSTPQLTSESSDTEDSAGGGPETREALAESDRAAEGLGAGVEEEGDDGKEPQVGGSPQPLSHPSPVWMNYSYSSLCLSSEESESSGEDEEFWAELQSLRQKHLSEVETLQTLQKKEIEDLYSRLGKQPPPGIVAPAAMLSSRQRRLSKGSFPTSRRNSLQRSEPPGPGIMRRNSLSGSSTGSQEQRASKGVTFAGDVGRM
# Chain of Serine/threonine-protein kinase OSR1 (Homo sapiens), O95747 D459A (O95747 whole entry D459A): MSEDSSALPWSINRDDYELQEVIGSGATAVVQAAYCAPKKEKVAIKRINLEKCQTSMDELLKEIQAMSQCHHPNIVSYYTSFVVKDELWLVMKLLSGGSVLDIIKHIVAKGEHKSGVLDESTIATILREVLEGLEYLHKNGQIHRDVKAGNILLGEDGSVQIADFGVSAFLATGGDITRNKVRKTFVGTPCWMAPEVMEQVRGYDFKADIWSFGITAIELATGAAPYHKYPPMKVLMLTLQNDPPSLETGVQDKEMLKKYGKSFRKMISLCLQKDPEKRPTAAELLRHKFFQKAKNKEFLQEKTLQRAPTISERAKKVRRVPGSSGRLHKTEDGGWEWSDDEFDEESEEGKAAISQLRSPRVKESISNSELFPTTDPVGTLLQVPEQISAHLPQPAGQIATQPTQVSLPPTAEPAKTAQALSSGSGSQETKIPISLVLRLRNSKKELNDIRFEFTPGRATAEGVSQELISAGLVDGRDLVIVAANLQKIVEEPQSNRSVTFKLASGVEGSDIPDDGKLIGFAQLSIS
# Chain of Serine/threonine-protein kinase OSR1 (Homo sapiens), O95747 L473A (O95747 whole entry L473A): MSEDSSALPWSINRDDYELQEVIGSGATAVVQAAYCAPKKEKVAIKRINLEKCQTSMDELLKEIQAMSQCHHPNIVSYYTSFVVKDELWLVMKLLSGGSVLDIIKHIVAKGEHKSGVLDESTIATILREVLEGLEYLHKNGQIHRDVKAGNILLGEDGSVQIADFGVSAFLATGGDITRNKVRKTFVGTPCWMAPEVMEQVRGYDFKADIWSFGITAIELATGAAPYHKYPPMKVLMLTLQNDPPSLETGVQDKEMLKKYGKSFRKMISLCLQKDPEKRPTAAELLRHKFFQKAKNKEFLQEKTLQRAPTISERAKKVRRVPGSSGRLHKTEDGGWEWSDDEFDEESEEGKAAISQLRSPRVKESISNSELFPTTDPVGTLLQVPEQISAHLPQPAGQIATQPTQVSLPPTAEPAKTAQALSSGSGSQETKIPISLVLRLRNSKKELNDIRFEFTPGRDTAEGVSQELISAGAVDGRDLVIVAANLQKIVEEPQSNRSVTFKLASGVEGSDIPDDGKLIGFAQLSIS
# Chain of SLC12A2 (P55011 whole entry): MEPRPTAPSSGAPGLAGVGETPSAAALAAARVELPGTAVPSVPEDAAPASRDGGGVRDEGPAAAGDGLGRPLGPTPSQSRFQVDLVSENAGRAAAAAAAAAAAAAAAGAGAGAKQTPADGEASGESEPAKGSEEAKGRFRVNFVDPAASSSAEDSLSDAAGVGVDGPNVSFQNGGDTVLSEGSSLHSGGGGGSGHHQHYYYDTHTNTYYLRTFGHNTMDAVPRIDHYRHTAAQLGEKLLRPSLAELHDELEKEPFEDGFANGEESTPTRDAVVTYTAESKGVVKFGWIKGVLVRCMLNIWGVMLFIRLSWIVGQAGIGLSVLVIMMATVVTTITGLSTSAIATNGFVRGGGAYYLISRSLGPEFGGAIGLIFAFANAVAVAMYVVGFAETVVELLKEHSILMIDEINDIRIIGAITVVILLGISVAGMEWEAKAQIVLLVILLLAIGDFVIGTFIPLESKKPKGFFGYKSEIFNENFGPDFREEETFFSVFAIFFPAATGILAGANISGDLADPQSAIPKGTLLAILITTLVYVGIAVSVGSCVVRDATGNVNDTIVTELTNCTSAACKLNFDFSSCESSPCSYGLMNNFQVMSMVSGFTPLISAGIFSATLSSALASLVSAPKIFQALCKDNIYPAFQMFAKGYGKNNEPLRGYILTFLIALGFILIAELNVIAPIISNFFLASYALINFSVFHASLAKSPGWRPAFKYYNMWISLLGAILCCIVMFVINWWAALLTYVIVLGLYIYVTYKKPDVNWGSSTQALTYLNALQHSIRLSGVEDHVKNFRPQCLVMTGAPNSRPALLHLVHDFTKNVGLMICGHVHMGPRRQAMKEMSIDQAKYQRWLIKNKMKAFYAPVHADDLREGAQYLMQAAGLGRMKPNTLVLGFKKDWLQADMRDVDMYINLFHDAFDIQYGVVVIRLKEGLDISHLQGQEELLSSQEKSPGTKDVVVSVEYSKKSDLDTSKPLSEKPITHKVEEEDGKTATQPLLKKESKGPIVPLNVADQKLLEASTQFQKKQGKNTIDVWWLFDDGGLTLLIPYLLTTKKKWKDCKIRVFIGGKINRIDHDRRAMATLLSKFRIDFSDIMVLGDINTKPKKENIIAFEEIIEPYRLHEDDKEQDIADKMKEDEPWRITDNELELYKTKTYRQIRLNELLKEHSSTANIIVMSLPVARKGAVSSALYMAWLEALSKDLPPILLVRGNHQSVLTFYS
# Chain of Serine/threonine-protein kinase OSR1 (Homo sapiens), O95747 D449A (O95747 whole entry D449A): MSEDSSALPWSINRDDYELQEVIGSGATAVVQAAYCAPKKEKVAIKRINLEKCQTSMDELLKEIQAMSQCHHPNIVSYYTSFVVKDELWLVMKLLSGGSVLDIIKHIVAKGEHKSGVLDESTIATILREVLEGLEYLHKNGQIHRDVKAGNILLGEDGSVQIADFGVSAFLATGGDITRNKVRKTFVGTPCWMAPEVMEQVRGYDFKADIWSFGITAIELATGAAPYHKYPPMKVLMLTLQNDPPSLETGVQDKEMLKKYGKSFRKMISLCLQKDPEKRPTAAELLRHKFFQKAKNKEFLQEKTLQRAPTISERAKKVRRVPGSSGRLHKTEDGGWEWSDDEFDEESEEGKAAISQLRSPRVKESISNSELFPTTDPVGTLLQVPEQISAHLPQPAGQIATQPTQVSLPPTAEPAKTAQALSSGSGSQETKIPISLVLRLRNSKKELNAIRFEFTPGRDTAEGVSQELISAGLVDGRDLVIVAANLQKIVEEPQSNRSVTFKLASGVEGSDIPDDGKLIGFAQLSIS
# Chain of Serine/threonine-protein kinase OSR1 (Homo sapiens), O95747 A471L (O95747 whole entry A471L): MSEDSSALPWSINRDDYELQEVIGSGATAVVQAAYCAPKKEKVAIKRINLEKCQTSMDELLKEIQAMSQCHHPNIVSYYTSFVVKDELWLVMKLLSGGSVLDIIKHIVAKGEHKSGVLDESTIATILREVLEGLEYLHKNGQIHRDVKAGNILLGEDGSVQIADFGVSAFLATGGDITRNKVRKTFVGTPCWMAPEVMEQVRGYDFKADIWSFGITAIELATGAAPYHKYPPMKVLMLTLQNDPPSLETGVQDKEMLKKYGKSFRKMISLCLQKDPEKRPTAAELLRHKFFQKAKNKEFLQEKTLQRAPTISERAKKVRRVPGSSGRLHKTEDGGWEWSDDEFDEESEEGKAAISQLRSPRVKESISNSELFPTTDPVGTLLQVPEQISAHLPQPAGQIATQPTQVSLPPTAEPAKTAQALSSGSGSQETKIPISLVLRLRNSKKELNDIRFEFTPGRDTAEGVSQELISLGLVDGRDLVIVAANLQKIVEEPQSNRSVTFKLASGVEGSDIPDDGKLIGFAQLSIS
substance,measurement,setting,value
"Serine/threonine-protein kinase OSR1 (Homo sapiens), O95747 D449A",effect of a mutation on the interaction,[1],decreasing interaction
"Serine/threonine-protein kinase OSR1 (Homo sapiens), O95747 L468F",effect of a mutation on the interaction,[2],disrupting interaction
"Serine/threonine-protein kinase OSR1 (Homo sapiens), O95747 A471L",effect of a mutation on the interaction,[3],decreasing interaction
"Serine/threonine-protein kinase OSR1 (Homo sapiens), O95747 E467A",effect of a mutation on the interaction,[4],disrupting interaction
"Serine/threonine-protein kinase OSR1 (Homo sapiens), O95747 I450A",effect of a mutation on the interaction,[5],disrupting interaction
"Serine/threonine-protein kinase OSR1 (Homo sapiens), O95747 R451A",effect of a mutation on the interaction,[6],decreasing interaction
"Serine/threonine-protein kinase OSR1 (Homo sapiens), O95747 D459A",effect of a mutation on the interaction,[7],disrupting interaction
same,effect of a mutation on the interaction,[8],disrupting interaction
same,effect of a mutation on the interaction,[9],disrupting interaction
"Serine/threonine-protein kinase OSR1 (Homo sapiens), O95747 E446A",effect of a mutation on the interaction,[10],decreasing interaction
"Serine/threonine-protein kinase OSR1 (Homo sapiens), O95747 L473A",effect of a mutation on the interaction,[11],disrupting interaction
same,effect of a mutation on the interaction,[12],disrupting interaction
same,effect of a mutation on the interaction,[13],disrupting interaction
